This is an account of results in patent publication US20230250139A1 (MIT, published 2023).

This data set concerns the molecule itself. The data set can be described thus: self-assembly in cultured mouse hippocampal neurons; anti-HA immunofluorescence, confocal.

B1: UBC-1POK(E239Y)-Linker7-HA-Linker3-Top7 (other)
chain: MIDYTAAGFTLLQGAHLYAPEDRGICDVLVANGKIIAVASNIPSDIVPNCTVVDLSGQILCPGFIDQHVHLIGGGGEAGPTTRTPEVALSRLTEAGVTSVVGLLGTDSISRHPESLLAKTRALNEEGISAWMLTGAYHVPSRTITGSVEKDVAIIDRVIGVKCAISDHRSAAPDVYHLANMAAESRVGGLLGGKPGVTVFHMGDSKKALQPIYDLLENCDVPISKLLPTHVNRNVPLFYQALEFARKGGTIDITSSIDEPVAPAEGIARAVQAGIPLARVTLSSDGNGSQPFFDDEGNLTHIGVAGFETLLETVQVLVKDYDFSISDALRPLTSSVAGFLNLTGKGEILPGNDADLLVMTPELRIEQVYARGKLMVKDGKACVKGTFETAGGSGGTGYPYDVPDYAGSGDIQVQVNIDDNGKNFDYTYTVTTESELQKVLNELKDYIKKQGAKRVRISITARTKKEAEKFAAILIKVFAELGYNDINVTWDGDTVTVEGQLE
For B1, the binding result is given as “binds”.

B2: UBC-1POK(E239Y)-Linker12-gg-HA (other)
chain: MIDYTAAGFTLLQGAHLYAPEDRGICDVLVANGKIIAVASNIPSDIVPNCTVVDLSGQILCPGFIDQHVHLIGGGGEAGPTTRTPEVALSRLTEAGVTSVVGLLGTDSISRHPESLLAKTRALNEEGISAWMLTGAYHVPSRTITGSVEKDVAIIDRVIGVKCAISDHRSAAPDVYHLANMAAESRVGGLLGGKPGVTVFHMGDSKKALQPIYDLLENCDVPISKLLPTHVNRNVPLFYQALEFARKGGTIDITSSIDEPVAPAEGIARAVQAGIPLARVTLSSDGNGSQPFFDDEGNLTHIGVAGFETLLETVQVLVKDYDFSISDALRPLTSSVAGFLNLTGKGEILPGNDADLLVMTPELRIEQVYARGKLMVKDGKACVKGTFETAGGSGGTGGSGGTGGYPYDVPDYA
Take B2: the binding result is listed as “binds”.

B3: UBC-1POK(E239Y)-Linker25-HA-gsg-Top7 (other)
chain: MIDYTAAGFTLLQGAHLYAPEDRGICDVLVANGKIIAVASNIPSDIVPNCTVVDLSGQILCPGFIDQHVHLIGGGGEAGPTTRTPEVALSRLTEAGVTSVVGLLGTDSISRHPESLLAKTRALNEEGISAWMLTGAYHVPSRTITGSVEKDVAIIDRVIGVKCAISDHRSAAPDVYHLANMAAESRVGGLLGGKPGVTVFHMGDSKKALQPIYDLLENCDVPISKLLPTHVNRNVPLFYQALEFARKGGTIDITSSIDEPVAPAEGIARAVQAGIPLARVTLSSDGNGSQPFFDDEGNLTHIGVAGFETLLETVQVLVKDYDFSISDALRPLTSSVAGFLNLTGKGEILPGNDADLLVMTPELRIEQVYARGKLMVKDGKACVKGTFETAGGSGGTGGSGGTGGSGGTGGSGGTGYPYDVPDYAGSGDIQVQVNIDDNGKNFDYTYTVTTESELQKVLNELKDYIKKQGAKRVRISITARTKKEAEKFAAILIKVFAELGYNDINVTWDGDTVTVEGQLE
As for B3, the binding result is on record as “binds”.

B4: CMV-DHF40-Linker8-HA (other)
chain: MSSEKEELRERLVKICVELAKLKGDDTLKAAEAAEEAFRLVVLAAMLAGIDSSEVLELAIRLIKTCVVLAAMEGYDISEACRAAAEAFTRVAMAALRAGITSSLVLKAAIELIKECVLNAAVEGYDISEACRAAAEAFKRVAEAAKRAGITSLETLLRAIEEIRKRVEEAQREGNDISEACRQAAEEFRKKAEELKRRGDVGGSGGTGGYPYDVPDYA
As for B4, the binding result was “binds”.

B5: CMV-1POK(E239Y)-Linker8-HA (other)
chain: MIDYTAAGFTLLQGAHLYAPEDRGICDVLVANGKIIAVASNIPSDIVPNCTVVDLSGQILCPGFIDQHVHLIGGGGEAGPTTRTPEVALSRLTEAGVTSVVGLLGTDSISRHPESLLAKTRALNEEGISAWMLTGAYHVPSRTITGSVEKDVAIIDRVIGVKCAISDHRSAAPDVYHLANMAAESRVGGLLGGKPGVTVFHMGDSKKALQPIYDLLENCDVPISKLLPTHVNRNVPLFYQALEFARKGGTIDITSSIDEPVAPAEGIARAVQAGIPLARVTLSSDGNGSQPFFDDEGNLTHIGVAGFETLLETVQVLVKDYDFSISDALRPLTSSVAGFLNLTGKGEILPGNDADLLVMTPELRIEQVYARGKLMVKDGKACVKGTFETAGGSGGTGGYPYDVPDYA
Turning to B5, the binding result is “binds”.
